The experiment addresses HLA-A*02:01 (Homo sapiens, UniProt P04439, D140Y/D185E/D98H/E176V/E277Q/G131W/G231S/I119V/I121R/I166T/I218V/L300P/L318F/N151K/N90K/P208A/P217A/Q86G/Q94H/R138H/R169H/T345S). In words: MHC binding assay: UV-ligand exchange and β2m ELISA (peptide exchange yield, Table 7). The note with it: binding of HLA-class I restricted peptides to HLA-A*02:01, UV-ligand exchange. In outline: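 Peptide-MHC complexes made by UV-mediated exchange of a cleavable ligand for test peptide; exchange yield measured by ELISA detecting β2m of stabilized complexes captured on streptavidin, using refolded HLA-A*02:01/MLA-001 monomer standards (15-500 ng/ml). Samples diluted 100-fold; HRP anti-β2m, TMB, absorbance 450 nm.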
Background: An ELISA detects its analyte on a solid surface through an enzyme-linked reagent.
As to “238 (HLQEKLQSL; listed as Homo sapiens) [compound 238]”, the “Peptide exchange (MHC class I binding score, peptide exchange yield)” value (from here on “Peptide exchange”) is listed as “++ (≥20% = ++)”.
Then “95 (KLIDEDEPLFL; listed as Homo sapiens) [compound 95]”, with “+++ (≥50% = +++)”; and “237 (ALLEQTGDMSL; listed as Homo sapiens) [compound 237]”, with “+++ (≥50% = +++)”.
For “1 (KLQEKIQEL; listed as Homo sapiens) [compound 1]”, the “Peptide exchange” value is “++++ (≥75% = ++++)”.
Then “63 (KLLPMVIQL; listed as Homo sapiens) [compound 63]”, with “+++ (≥50% = +++)”; and “18 (KTASINQNV; listed as Homo sapiens) [compound 18]”, with “++ (≥20% = ++)”; and “236 (KMSELQTYV; listed as Homo sapiens) [compound 236]”, with “+++ (≥50% = +++)”.
As to “87 (KLLSLLEEA; listed as Homo sapiens) [compound 87]”, the “Peptide exchange” value is “+++ (≥50% = +++)”.
In the case of “157 (ILQDGQFLV; listed as Homo sapiens) [compound 157]”, the “Peptide exchange” value is on record as “++ (≥20% = ++)”.
Then “279 (VLMDEGAVLTL; listed as Homo sapiens) [compound 279]”, with “++ (≥20% = ++)”.
For “169 (ALADLSVAV; listed as Homo sapiens) [compound 169]”, the “Peptide exchange” value is recorded as “+++ (≥50% = +++)”.
With “228 (SLLELDGINLRL; listed as Homo sapiens) [compound 228]”, the “Peptide exchange” value is given as “+++ (≥50% = +++)”.
In the case of “165 (SLLDYEVSI; listed as Homo sapiens) [compound 165]”, the “Peptide exchange” value is given as “+++ (≥50% = +++)”.
Consider “133 (FLDGRPLTL; listed as Homo sapiens) [compound 133]”, for which the “Peptide exchange” value is “++ (≥20% = ++)”.
As for “69 (LKVLKADVVL; listed as Homo sapiens) [compound 69]”, the “Peptide exchange” value is “++ (≥20% = ++)”.
Then “242 (KLQEEIPVL; listed as Homo sapiens) [compound 242]”, with “+++ (≥50% = +++)”; and “71 (HMSGKLTNV; listed as Homo sapiens) [compound 71]”, with “++ (≥20% = ++)”; and “245 (ALLEEEEGV; listed as Homo sapiens) [compound 245]”, with “++ (≥20% = ++)”.
For “115 (ILHGEVNKV; listed as Homo sapiens) [compound 115]”, the “Peptide exchange” value is on record as “++ (≥20% = ++)”.
Consider “256 (FLNDIFERI; listed as Homo sapiens) [compound 256]”, for which the “Peptide exchange” value is given as “+++ (≥50% = +++)”.
In the case of “262 (LLLEAVWHL; listed as Homo sapiens) [compound 262]”, the “Peptide exchange” value is recorded as “+++ (≥50% = +++)”.
On to “190 (SLSTELFKV; listed as Homo sapiens) [compound 190]”, for which the “Peptide exchange” value is listed as “+++ (≥50% = +++)”.
In the case of “247 (NLLIDDKGTIKL; listed as Homo sapiens) [compound 247]”, the “Peptide exchange” value is on record as “++ (≥20% = ++)”.
“263 (SIIEYLPTL; listed as Homo sapiens) [compound 263]”: the “Peptide exchange” value is recorded as “+++ (≥50% = +++)”.
For “246 (ALAGIVTNV; listed as Homo sapiens) [compound 246]”, the “Peptide exchange” value is on record as “+++ (≥50% = +++)”.
Take “45 (FLPVSVVYV; listed as Homo sapiens) [compound 45]”: the “Peptide exchange” value is given as “+++ (≥50% = +++)”.
Take “126 (QLREAFEQL; listed as Homo sapiens) [compound 126]”: the “Peptide exchange” value is on record as “+++ (≥50% = +++)”.
In the case of “159 (QLGPVPVTI; listed as Homo sapiens) [compound 159]”, the “Peptide exchange” value was “+++ (≥50% = +++)”.
For the substance “38 (VLQQESNFL; listed as Homo sapiens) [compound 38]”, the “Peptide exchange” value is listed as “++ (≥20% = ++)”.
Then “230 (KLLNMIFSI; listed as Homo sapiens) [compound 230]”, with “+++ (≥50% = +++)”; and “82 (ILAEEPIYIRV; listed as Homo sapiens) [compound 82]”, with “+++ (≥50% = +++)”.
For the substance “33 (TLDRNSLYV; listed as Homo sapiens) [compound 33]”, the “Peptide exchange” value was “++ (≥20% = ++)”.
As to “12 (RLLDPKTIFL; listed as Homo sapiens) [compound 12]”, the “Peptide exchange” value is recorded as “+++ (≥50% = +++)”.
Take “92 (RLFEEVLGV; listed as Homo sapiens) [compound 92]”: the “Peptide exchange” value is given as “++++ (≥75% = ++++)”.
Consider “124 (ALLLRLFTI; listed as Homo sapiens) [compound 124]”, for which the “Peptide exchange” value was “++ (≥20% = ++)”.
For “207 (KLFETVEEL; listed as Homo sapiens) [compound 207]”, the “Peptide exchange” value is given as “+++ (≥50% = +++)”.
For the substance “226 (SLAGNLQEL; listed as Homo sapiens) [compound 226]”, the “Peptide exchange” value is given as “+++ (≥50% = +++)”.
Regarding “274 (TLYNPERTITV; listed as Homo sapiens) [compound 274]”, the “Peptide exchange” value was “+++ (≥50% = +++)”.
With “276 (RMPTVLQCV; listed as Homo sapiens) [compound 276]”, the “Peptide exchange” value is given as “+++ (≥50% = +++)”.
Turning to “199 (SVADLAHVL; listed as Homo sapiens) [compound 199]”, the “Peptide exchange” value is “++ (≥20% = ++)”.
On to “194 (KLLEEVQLL; listed as Homo sapiens) [compound 194]”, for which the “Peptide exchange” value is “++ (≥20% = ++)”.
The result for “154 (AIIKEIQTV; listed as Homo sapiens) [compound 154]” reads “++ (≥20% = ++)”; that for “9 (SLITGQDLLSV; listed as Homo sapiens) [compound 9]”, “+++ (≥50% = +++)”.
Turning to “177 (ALINVLNAL; listed as Homo sapiens) [compound 177]”, the “Peptide exchange” value was “+++ (≥50% = +++)”.
As to “195 (VIIQNLPAL; listed as Homo sapiens) [compound 195]”, the “Peptide exchange” value was “+++ (≥50% = +++)”.
Take “57 (TLYPGRFDYV; listed as Homo sapiens) [compound 57]”: the “Peptide exchange” value is given as “++ (≥20% = ++)”.
Then “139 (IILENIQSL; listed as Homo sapiens) [compound 139]”, with “+++ (≥50% = +++)”; and “41 (IVTEIISEI; listed as Homo sapiens) [compound 41]”, with “+++ (≥50% = +++)”.
For the substance “208 (HLNNDRNPL; listed as Homo sapiens) [compound 208]”, the “Peptide exchange” value was “++ (≥20% = ++)”.
The result for “255 (FLMKNSDLYGA; listed as Homo sapiens) [compound 255]” reads “+++ (≥50% = +++)”.
With “31 (GLLETTGLLAT; listed as Homo sapiens) [compound 31]”, the “Peptide exchange” value is “+++ (≥50% = +++)”.
Turning to “239 (VIIKGLEEITV; listed as Homo sapiens) [compound 239]”, the “Peptide exchange” value is “+++ (≥50% = +++)”.
Consider “27 (GLLGKVTSV; listed as Homo sapiens) [compound 27]”, for which the “Peptide exchange” value is reported as “+++ (≥50% = +++)”.
“187 (SILKEDPFL; listed as Homo sapiens) [compound 187]”: the “Peptide exchange” value is recorded as “++ (≥20% = ++)”.
“75 (ALLDGALQL; listed as Homo sapiens) [compound 75]”: the “Peptide exchange” value is reported as “+++ (≥50% = +++)”.

Values taken from US9994628B2, “Peptides and combination of peptides for use in immunotherapy against various tumors” (IMMATICS BIOTECHNOLOGIES GMBH, priority 2015, dated 2018).
